Among the data in paper PMC9405506, “Thermostable and O2-Insensitive Pyruvate Decarboxylases from Thermoacidophilic Archaea Catalyzing the Production of Acetaldehyde” (Biology, 2022) are Km and Vmax values, retold here.

Substrate in data set [1]: CC(=O)C(=O)O
Put plainly: PDC activity: acetaldehyde by DNPH derivatization and HPLC, Michaelis-Menten fit. Format: biochemical, Saccharolobus solfataricus. Conditions: PDC (non-oxidative decarboxylation) reaction, 0.1 mM CoA, 100 mM sodium phosphate pH 7.9, 80 °C. The source says: PDC activity: acetaldehyde by DNPH derivatization and HPLC, Michaelis-Menten fit on SsPOR/PDC

Substrate in data set [2]: CC(=O)C(=O)O
Put plainly: purified protein. As to conditions: POR (oxidative decarboxylation) reaction, 0.1 mM CoA, 1 mM benzyl viologen, 50 µM sodium dithionite, anaerobic, pH 8.0, 80 °C. Format: biochemical, Saccharolobus solfataricus.

B1: SsPOR/PDC (Saccharolobus solfataricus) (protein)
chain 1: MRISWMIGGAQGSGVDTSANIFGNAVAASGYYIYGNREYYSNIKGRHSYFNLTISDKPPRSIAQQIEILTSFDAETIFQHFNEVKDVLIYSTEVENTKAEQVQSMEPEITEHVVKFLKEKGYGTTVKDVINYLKKEKGVKVIPIDYMEILKKVADQAKVQLSVADRARNTIAIAASYKLLGLKEQYLINSITRTFRQEVFAKINTIAAQLAMQQIQPMYNLPELPNNEEKINLDGNTAAAIGKIYGGLRFQSYYPITPASDESVFIEAHQTVFTVDPKTGEKRKSTIVVVQAEDELAAINMASGAALTGVRAATATSGPGFSLMVEGMGWAGMNEVPVVITYYIRGGPSTGQPTRTSQADLMFALNAGHGEFPRIVIASGDHVEAFHDGTWALNLAQKYQTPVIHLVDKALANSYSIIPKKTLGMENIRIEKGKIVINTNTPELKRFEITEDGISPFAPLGTARVHYTGDEHDEYGFIAEASENREKMYEKRIKKLMTADKEIPEESRVNVYGNTDSKVAIITWGSPKGAILDAMEELENEGIKPMLIQIRMFSPFPKNLMRKLLNGKEFIIDVESNYFGQAGEVLKLNTGIEPTHYILKWNGRPMMRDEVKEGIKAVVQKGERRVVLHGGA
chain 2: MAGLKVEWNDWCPGCGNFGILSAEQQAIQELGLDPKKVVLVSGIGCSGKIPHFIRLPASGVHTLHGRALTFAIGIKLANPSLEVIVNGGDGDQLGIGVGHFVSAGRRNVDLTVIVHNNGVYGLTKGQASPTLKLGVKTKSLPKPNINSDINPIALAISSGYTFVARGYAYDVKHLKEIIKKAIKHKGLAMIDVLQPCPTYNDIHTKEYYDKRVYKLDEDPSWDPIVKKPEEMDDKMSKAILKSMEWGDRTPIGIFYQNELVSTYEQRIAERSPSYLDNPPAHDVIEFEGKPTTDVEDILKERRVT
notes: native, purified from cells by DEAE-Sepharose, hydroxyapatite and phenyl-Sepharose; heterodimer (alpha-beta), subunits 37 and about 65 kDa
With B1, in data set [1], the Km was 1100 ± 200 µM and the Vmax is 0.12 µmol/min/mg. For the same protein, in data set [2], the Km worked out at 500 ± 100 µM and the Vmax is 6.3 µmol/min/mg.
